# Patent publication US9371393B2, “Class I anti-CEA antibodies and uses thereof” (Immunomedics, Inc., priority 2009, dated 2016)
# T1: CEA (Homo sapiens, UniProt P06731)
# T1 sequence (P06731 35-676): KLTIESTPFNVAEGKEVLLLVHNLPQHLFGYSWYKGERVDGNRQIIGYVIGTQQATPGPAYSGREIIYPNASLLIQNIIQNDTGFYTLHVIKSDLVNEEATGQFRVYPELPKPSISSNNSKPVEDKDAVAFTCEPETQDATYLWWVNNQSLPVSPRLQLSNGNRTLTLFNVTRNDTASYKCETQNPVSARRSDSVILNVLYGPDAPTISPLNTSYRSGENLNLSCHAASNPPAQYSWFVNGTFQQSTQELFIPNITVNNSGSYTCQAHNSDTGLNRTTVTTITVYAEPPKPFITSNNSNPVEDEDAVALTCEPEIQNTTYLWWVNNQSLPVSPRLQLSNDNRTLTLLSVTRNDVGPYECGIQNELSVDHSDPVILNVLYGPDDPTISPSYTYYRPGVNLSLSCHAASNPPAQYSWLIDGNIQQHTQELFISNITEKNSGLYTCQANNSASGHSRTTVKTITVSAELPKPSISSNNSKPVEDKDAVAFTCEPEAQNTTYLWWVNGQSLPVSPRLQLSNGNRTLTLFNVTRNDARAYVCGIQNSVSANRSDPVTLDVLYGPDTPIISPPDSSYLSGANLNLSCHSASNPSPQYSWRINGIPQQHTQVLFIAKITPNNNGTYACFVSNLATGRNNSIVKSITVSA
# B1: hMN-15: humanized MN-15, VK SEQ ID NO:7 and VH SEQ ID NO:8, REI/KOL frameworks, human IgG1 (antibody, V domains shown)
# VH: QVQLVESGGGVVQPGRSLRLSCSSSGFALTDYYMSWVRQAPGKGLEWLGFIANKANGHTTDYSPSVKGRFTISRDNSKNTLFLQMDSLRPEDTGVYFCARDMGIRWNFDVWGQGTPVTVSS
# VL: DIQLTQSPSSLSASVGDRVTMTCSASSRVSYIHWYQQKPGKAPKRWIYGTSTLASGVPARFSGSGSGTDFTFTISSLQPEDIATYYCQQWSYNPPTFGQGTKVEIKR
# modifications: human IgG1 constant regions
# B2: cMN-15: murine MN-15 variable regions (SEQ ID NO:9, SEQ ID NO:10) attached to human IgG1 constant regions (antibody, listed as Mus sp., V domains shown)
# VL: DIQLTQSPAIMSASPGEKVTMTCSASSRVSYIHWYQQKSGTSPKRWIYGTSTLASGVPARFSGSGSGTSYSLTISSMEAEDAATYYCQQWSYNPPTFGAGTKLELKR
# VH: EVRLVESGGGLVQGPGSLRLSCAASGFALTDYYMSWVRQSPGKTLEWLGFIANKANGHTTDYSPSVKGRFTISRDNSQTILYLQMNTLRTEDSATYYCARDMGIRWNFDVWGQGTTVTVSS
# modifications: human IgG1 constant regions
# How the values were obtained:
# [1] = system: RII and RI isoforms of PKA; settings: Gold 2006; Stokka et al. 2006; cited from earlier work
# [2] = system: SUM1315 breast cancer model; assay: hMN-15 pretreatment and CPT-11 in SUM1315 breast cancer model; assay type: in vivo; settings: single agent; dosages as in Example 5
# Procedure: The effects of pre-treatment with naked hMN-15 CEA Mab given 3 days prior to CPT-11 treatment is examined in a SUM1315 breast cancer model (Kuperwasser et al., Cancer Res. 2005, 65:6130-38). CPT-11 alone, hMN-15 alone, and combination therapy of hMN-15+CPT-11 where the hMN-15 is administered 3 days prior to the CPT-11 are compared. Dosages are as indicated in Example 5. hMN-15 alone increases median survival time by 21% under these conditions. CPT 11 alone increases survival by 76%. By contrast, the combination therapy where hMN-15 is administered 3 days prior to CPT-11 produces a median survival time increase of an additional 58% above CPT-11 alone. […] The synergistic effect of hMN-15 antibody with CPT-11 therapy is surprising.
# CEA = molecular target: T1, CEA; assay: Competitive CEA binding against HRP-labeled murine MN-15; settings: competition with HRP-labeled murine MN-15
# Text: To make a chimeric MN-15 antibody, the murine MN-15 variable region sequences were attached to human IgG1 constant region sequences, as described in Leung et al., Hybridoma 13:469 (1994). The sequences of the murine MN-15 VK (SEQ ID NO:9) and MN-15 VH (SEQ ID NO:10) used to construct the chimeric MN-15 (cMN-15) are shown in FIG. 2 and FIG. 3.
# [3] = system: liver metastases of sigmoid colon cancer; assay: Sigmoid colon cancer therapy with hMN-15 and GM-CSF, patient two; assay type: in vivo, human; set-up: blood CEA titer / CEA titer: unit not given here
# Procedure: patient two is a person who is refractive to chemotherapy with 5-fluorouracil and leucovorin to reduce their metastases to the liver found at the time of removal of their sigmoid colon cancer. […] Other radiological studies appear to be normal. Immunotherapy with humanized anti-CEA IgG (hMN-15) monoclonal antibody is begun on a weekly basis for 4 weeks, at an intravenous dose of 300 mg/m^2 infused over 2 hours. One week prior to hMN-15 therapy, the patient receives 2 subcutaneous injections of 200 μg/m^2 GM-CSF, 3 days apart, and continued twice weekly during the 4 weeks of hMN-15 therapy. After these four weeks, both hMN-15 and GM-CSF are given at the same doses every other week for an additional 3 months, but the dose of GM-CSF is increased to 250 μg/m^2. Prior to each administration of the humanized anti-CEA antibody, the patient is given diphenhydramine (50 mg orally), and acetaminophen (500 mg orally).
# [4] = system: liver and lung metastases of colon cancer; assay: Combined immunotherapy and chemotherapy of metastatic colon cancer, patient one; assay type: in vivo, human; set-up: blood CEA titer: unit not given here
# Procedure: patient one is a person presenting with liver and lung metastases of colon cancer following resection of the primary tumor. They are placed on a combined chemotherapy and immunotherapy protocol based on the Gramont schedule (de Gramont et al., J Clin Oncol. 2000, 18:2938-47), but with the addition of humanized anti-CEA monoclonal antibody IgG1 (hMN-15). Prior to infusions of the antibody, they receive 50 mg orally of diphenhydramine and 500 mg orally of acetaminophen. They receive a 2-hr infusion of leucovorin (200 mg/m^2/day) followed by a bolus of 5-fluorouracil (400 mg/m^2/day) and 22-hour continuous infusion of 5-fluorouracil (600 mg/m^2/day) for 2 consecutive days every 2 weeks, together with oxaliplatin at 85 mg/m^2 as a 2-hr infusion in 250 mol of dextrose 5%, concurrent with leukovorin on day 1 (FOLFOX4 schedule). The patient also receives anti-emetic prophylaxis with a 5-hydroxyltryptamine-3-receptor antagonist. One week prior to this 2-week chemotherapy cycle, hMN-15 monoclonal anti-CEA antibody is infused over 2 hrs at a dose of 200 mg/m^2, and repeated each week of the 2-week chemotherapy cycle, and every week thereafter for the next month with another chemotherapy cycle. Also, a subcutaneous dose of 5 μg/kg/day of G-CSF is administered once weekly beginning with the second chemotherapy cycle, and continued at this dose for the duration of immunotherapy with hMN-15 antibody, over the next 3 months.
# A total of 5 cycles of chemotherapy is performed with continued administration of hMN-15 antibody and filgrastim. Thereafter, hMN-15 and filgrastim therapy is given, at the same doses, every other week for the next 3 months, without chemotherapy. The patient is staged 2 months later, and their liver and lung metastases show shrinkage by computed tomography measurements of >80 percent of disease measured in the liver and lungs, as compared to the measurements made prior to therapy. […] They are followed over the next 6 months, and their disease appears to be stable, with no new lesions found and no increase in the disease remaining in the liver and lungs. […] The patient also experiences diarrhea, mucositis, nausea and vomiting during the chemotherapy cycles, but these are not excessive.
# [5] = system: TT human medullary thyroid cell line tumors; assay: hMN-15 and DTIC in TT medullary thyroid cancer xenografts; assay type: in vivo, nu/nu mice; settings: at 7 weeks, DTIC 75 μg/dose, hMN-15 100 μg/dose
# Procedure: Tumors are propagated in female nu/nu mice (Taconic Farms, Germantown, N.Y.) at 6-8 weeks of age by s.c. injection of 2×10^8 washed TT cells, which is propagated in tissue culture. Antibodies are injected i.v., via the lateral tail vein, into the tumor-bearing animals. Tumor size is monitored by weekly measurements of the length, width, and depth of the tumor using a caliper. Tumor volume is calculated as the product of the three measurements.
# To study whether naked hMN-15 can add to the efficacy of DTIC, TT bearing nude mice are given DTIC (75 μg/dose) in combination with a course of treatment of the unlabeled MAb. DTIC is administered for 3 consecutive days at 75 μg/dose as one course, beginning 2 days after s.c. injection of TT cells. hMN-15 MAb treatment is initiated 3 days prior to the first dose of DTIC, at 100 μg/dose/day for 5 days in the first two weeks, then twice weekly.
# [6] = hMN-15 with GM-CSF, restaging after another 2 months
molecule,measurement,setting,value
QIEYVAKQIVDYAIHQA [SuperAKAP-IS],selectivity / affinity for RII versus RI isoform of PKA,[1],five order of magnitude higher selectivity for the RII isoform of PKA compared with the RI isoform
LEQYANQLADQIIKEATE [RIAD],selectivity / affinity for RII versus RI isoform of PKA,[1],higher affinity for RI
FEELAWKIAKMIWSDVFQQC [PV-38],selectivity / affinity for RII versus RI isoform of PKA,[1],higher affinity for RI
"CCc1c2c(nc3ccc(OC(=O)N4CCC(N5CCCCC5)CC4)cc13)-c1cc3c(c(=O)n1C2)COC(=O)[C@]3(O)CC [CPT-11, irinotecan, reference compound]",increase of median survival time,[2],76%
DLIEEAASRIVDAVIEQVKAAGAY [Ht-31],selectivity / affinity for RII versus RI isoform of PKA,[1],greater affinity for the RII isoform of PKA
B1,affinity for CEA compared with parent murine MN-15,CEA,virtually identical
same,dissociation constant,CEA,nanomolar range
same,decrease of sum of the diameters of the measurable tumors in the liver,"[3]; hMN-15 300 mg/m^2 with GM-CSF, first restaging",40%
same,adverse reactions,[3]; hMN-15 with GM-CSF,no adverse reactions to the therapy
same,blood CEA titer,"[3]; hMN-15 with GM-CSF, first restaging, at presentation 34 ng/mol",18
same,CEA titer,[3]; [6],10
same,tumor decrease over the pre-therapy baseline,[3]; [6],> 65%
same,shrinkage of liver and lung metastases by computed tomography,[4]; hMN-15 200 mg/m^2 with FOLFOX4 schedule and G-CSF (filgrastim),> 80%
same,adverse events when only immunotherapy is administered,[4]; hMN-15 and filgrastim without chemotherapy,does not experience any adverse events
same,predominant toxicity,"[4]; hMN-15 with FOLFOX4 and filgrastim, during chemotherapy cycles",peripheral sensory neuropathy
same,blood CEA titer,"[4]; hMN-15 with FOLFOX4 and filgrastim, pre-therapy level 63 ng/mol",9
same,increase of median survival time,[2],21%
same,mice with no palpable tumor,[5]; untreated 0/10,0/10
same,mean tumor volume,[5]; untreated 1.578+0.959,0.899+0.545 cm^3
B2,affinity for CEA compared with parent murine MN-15,CEA,virtually identical
same,dissociation constant,CEA,nanomolar range
